Laboratory results reported in publication PMC4987623, “The tetrameric MotA complex as the core of the flagellar motor stator from hyperthermophilic bacterium” (Scientific Reports, 2016).

Key:
[1] = target: the molecule itself; assay: cross-linking; about 0.5 mg/mL purified His-MotA in PN buffer (50 mM NaPO4 pH 7.0, 150 mM NaCl) with 0.1% (w/v) DM, 20 °C, 0-5 mM BS3 for 5 min; SDS-PAGE, CBB staining and immunoblot
[2] = target: the molecule itself; assay: cross-linking; about 0.5 mg/mL purified His-MotA in PN buffer (50 mM NaPO4 pH 7.0, 150 mM NaCl) with 0.1% (w/v) DM, 20 °C, 20 mM EDC for 0-120 min; SDS-PAGE, CBB staining and immunoblot
[3] = target: the molecule itself; assay: negative-stain electron microscopy, single particle 3D reconstruction; MotA complex from the 210 kDa gel filtration fraction, stained with 2% uranyl acetate; 2-fold rotational symmetry applied; 25 Å resolution

B1: MotA from Aquifex aeolicus with N-terminal histidine tag (His-MotA^Aa) (natural protein, UniProt O67122 1-254, looked up)
chain: MDVGTIIGIIAAFLLILISILIGGSITAFINVPSIFIVVGGGMAAAMGAFPLKDFIRGVLAIKKAFLWKPPDLNDVIETIGEIASKVRKEGILALEGDIELYYQKDPLLGDMIRMLVDGIDINDIKATAEMALAQLDEKMSTEVAVWEKLADLFPAFGMIGTLIGLIQMLRNLNDPSALGPGMAVALITTLYGAILANAFAIPVANKLKKAKDMEVLVKTIYIEAIEKIQKGENPNVVKQEAAIMLGVELPEEV
notes: MotA, flagellar motor stator protein of Aquifex aeolicus; full-length motA gene cloned into pColdI; four transmembrane helices, cytoplasmic residues 54-149 and 205-254; Expressed from pColdI-motA^Aa without MotB; 28 kDa with the tag; source: E. coli BL21-CodonPlus(DE3)-RIPL, membrane fraction solubilized in detergent, purified (Ni-NTA agarose, gel filtration); not shown: His6, N-terminal, kept
- stoichiometry N [1]: 2
- stoichiometry N [2]: ≥ 4
- stoichiometry N [3]: 4
